Test results published in patent publication US10533231B2, “Artificial bioluminescent enzyme” (NATIONAL INSTITUTE OF ADVANCED INDUSTRIAL SCIENCE AND …, priority 2012, dated 2020).

B1: ALuc16: artificial luciferase, SEQ ID NO: 13 (protein)
chain: MMGIKVLFALICFALVQANPTENKDDIDIVGVEGKFGTTDLETDLFTIVEDMNVISRDTDVDANRADRGRRGKLPGKKLPLEVLKELEANAQKAGCTRGCLICLSHIKCTAKMKKWLPGRCESWEGDKETGQGGIGEAIVDIPEIPGFKDLEPMEQFIAQVDLCVDCTTGCLKGLANVKCSDLLKKWLPSRCATFASKIQAQVDKIKGAGGS
modifications: Synthetic ALuc16
B2: ALuc30: artificial luciferase containing a His tag, SEQ ID NO: 32 (protein)
chain: MMGIKVLFALICFALVQANHHHHHHHHDIVGVEGKFGTTDLETDLFTIVEDMNVISRDTDVDANRADRGRRGKLPGKKLPLEVLKELEANAQKAGCTRGCLICLSHIKCTAKMKKWLPGRCESWEGDKETGQGGIGEAIVDIPEIPGFKELAPMEQFIAQVDLCADCTTGCLKGLANVKCSALLKKWLPSRCAGFADKIQAQVDTIKGAGGS
modifications: His tag; Synthetic Aluc30
B3: ALuc33: artificial luciferase containing an HA-tag, SEQ ID NO: 35 (protein)
chain: MMGIKVLFALICFALVQANMMYPYDVPDYAGVEGKFGTTDLETDLFTIVEDMNVISRDTDVDANRADRGRRGKLPGKKLPLEVLKELEANAQKAGCTRGCLICLSHIKCTAKMKKWLPGRCESWEGDKETGQGGIGEAIVDIPEIPGFKELAPMEQFIAQVDLCADCTTGCLKGLANVKCSALLKKWLPSRCAGFADKIQAQVDTIKGAGGS
modifications: HA tag; Synthetic ALuc33
B4: ALuc34: artificial luciferase containing a Flag-tag, SEQ ID NO: 36 (protein)
chain: MMGIKVLFALICFALVQANMMDYKDDDDKVGVEGKFGTTDLETDLFTIVEDMNVISRDTDVDANRADRGRRGKLPGKKLPLEVLKELEANAQKAGCTRGCLICLSHIKCTAKMKKWLPGRCESWEGDKETGQGGIGEAIVDIPEIPGFKELAPMEQFIAQVDLCADCTTGCLKGLANVKCSALLKKWLPSRCAGFADKIQAQVDTIKGAGGS
modifications: Flag tag; Synthetic Aluc34

Experiments:
[1] = tested on: COS-7 cells; assay: Luminescence stability of ALucs after substrate injection (Example 1-3); type: cell-based, African green monkey; conditions: Promega lysis and reaction solution
Description: The luminescence stability of the artificial luciferases (ALucs) of the present invention was examined in various respects (FIG. 3). COS-7 cells containing each luciferase gene were cultured for 9 hours, and treated with a cell lysis solution produced by Promega for 20 minutes. Temporal changes in luciferase luminescence intensity after the introduction of a substrate-containing reaction solution produced by Promega were observed every five minutes (FIG. 3A).
This experiment was expanded to artificial luciferases ALuc16 to ALuc25 (FIG. 3BC).

[2] = tested on: COS-7 cells; assay: Enzymatic activity confirmation of ALuc (section 3-1, 3-2); type: cell-based, African monkey; conditions: vs conventional copepod luciferases
Description: First, using a known lipid reagent for gene introduction, an expression vector encoding ALuc is introduced into African monkey-derived COS-7 cells; as a control, an expression vector having a known GLuc without any mutation into the cells is also introduced in the same manner. At a predetermined time (from 10 to 20 hours, for example, 16 hours) after the introduction of the vector, a cell lysate is prepared using a known lysis reagent.
Thereafter, the cell lysate is mixed with a known substrate solution containing coelenterazine, and its color intensity, temporal stability in luminescence, etc., are measured.
The luminescence intensity may be found by measuring the intensity at a specific wavelength using a known luminescence spectrophotometer after addition of a known substrate. By performing the measurement every minute, the temporal stability in luminescence can be evaluated. To measure a shift to a longer wavelength, scanning of the entire wavelength is necessary.

[3] = tested on: COS-7 cells; assay: Comparison of luminescence intensity of ALucs (Example 1-2); type: cell-based, African green monkey; conditions: COS-7 cultured overnight, Promega assay solution, LAS-4000
From the text: The artificial luciferase (ALuc) genes synthesized by the above process were subcloned into mammalian cell expression vectors (pcDNA3.1 (+)). Each expression vector was transfected with African green monkey kidney-derived COS-7 cells, and the luminescence intensity, luminescence stability, and red-shifted degree of artificial luciferases (ALucs) were compared (FIGS. 2 to 5).
First, the luminescence intensity of artificial luciferases (ALucs) was compared (FIG. 2). For the comparison, COS-7 cells containing a vector encoding each luciferase were cultured overnight, and then the relative luminescence intensity was measured by using an assay solution, which is a mixture of a cell lysis solution and a substrate, produced by Promega, and a luminescence image analyzer (LAS-4000).

[4] = tested on: COS-7 cells; assay: Mammalian two-hybrid assay with luciferase reporters (Example 1-9); type: cell-based, African green monkey
Description: First, using a known gene engineering technique, a novel reporter expression vector obtained by inserting a gene encoding MpLuc4 or ALuc16 into a commercially available reporter expression vector (pG5) was constructed. In addition, pG5-GLuc, which is the result of the researchers' previous study, was also prepared (FIG. 9A).
In addition to any one of the above three types of reporter expression vectors, a vector (pACT-MyoD) expressing a muscle regulatory factor (MyoD) and a vector (pBIND-ID) expressing a transcriptional regulator (ID) were cotransfected into COS-7 cells. After culturing overnight in a cell culturing device, a lysis solution and a substrate solution produced by Promega were used to cause a luminescent reaction, and difference in luminescence intensity varying according to the reporter difference was compared.
Along with the measurement, the luminescence value from the supernatant (medium) during cell culturing was simultaneously measured.

[5] = tested on: COS-7 cells; assay: Degree of extracellular secretion of ALucs (Example 1-4); type: cell-based, African green monkey; conditions: luminescence intensity of the medium, overnight culture
Description: Further, each luciferase (ALuc) was introduced into COS-7 cells, culturing was performed overnight, and then the amount of each luciferase (ALuc) secreted from the cells was measured based on the luminescence intensity of the medium (FIG. 4B).

[6] = Prolonged activity stability of ALucs secreted in medium (Example 1-19); type: physicochemical; conditions: for prolonged enzymatic activity stability: Day 0 to Day 25
Description: The prolonged activity stability of the artificial luciferases (ALucs) developed in the present invention was examined. First, a plasmid expressing each artificial luciferase (ALuc16, ALuc22, ALuc23, ALuc24, ALuc25, and ALuc30) (in the figure, each is referred to as A16, A22, A23, A24, A25, and A30) was introduced into COS-7 cells, and then culturing was continued for 24 hours. By the culturing, each artificial luciferase was secreted into the medium. The artificial luciferase secreted in the medium was collected, and a difference in enzymatic activity was measured under the same conditions in the following manner. On the first day (Day 0), 50 μL of assay solution (containing native coelenterazine, produced by Promega) was added to 5 μL of each medium, and the luminescence value (enzymatic activity) was measured using an LAS-4000 (produced by FujiFilm). In the same manner, the luminescence value on Day 8, Day 16, and Day 25 was compared with the luminescence value on Day 0 (FIG. 19 (A)).

[7] = Heat resistance of ALucs in lysate (Example 1-4); type: physicochemical; conditions: 80° C. for 10 minutes
Description: The heat resistance and degree of extracellular secretion of artificial luciferases of the present invention were measured (FIG. 4). First, to measure heat resistance, COS-7 cells containing each luciferase were lysed in cell lysis solutions produced by Promega to prepare lysates. Subsequently, same samples were allowed to stand at room temperature or heated at 80° C. for 10 minutes, and changes in luminescence intensity were compared by using a (substrate-containing) reaction solution produced by Promega.

[8] = Temporal change in luminescence after substrate injection, medium 25 days after expression (Example 1-19); type: biochemical
Description: 50 μL of an assay solution (containing native coelenterazine, produced by Promega) was added to 5 μL of each medium 25 days after the expression, and the luminescence value (enzymatic activity) was measured using an LAS-4000 (produced by FujiFilm).

[9] = tested on: COS-7 cells; assay: Luminescence intensity of tag-containing ALucs secreted into medium (Example 1-21); type: cell-based; conditions: culturing one day, Promega kit with nCTZ
Description: To compare the luminescence intensity of novel luciferases, a comparison experiment was performed under the same conditions as Example 1-2 (COS-7 cells, culturing for one day, using an assay kit produced by Promega) (FIG. 21 (B)). Finally, the luminescence intensity of each luciferase secreted into the medium was compared using an assay kit (containing native coelenterazine (nCTZ)) produced by Promega.

[10] = tested on: COS-7 cells; assay: Luminescence of ALuc25 to ALuc32 in lysate and medium (Example 1-18); type: cell-based; conditions: 20 hours after plasmid introduction
Description: After the insertion of a gene encoding an enzyme sequence as mentioned above into a mammalian expression vector (pcDNA3.1 (+)), each plasmid was introduced into COS-7 cells. By the transformation of these cells, each luciferase was expressed, and some of the luciferase was secreted out of the cells and some of the luciferase retained in the cells. 20 hours after the plasmid introduction, media of the cells were sampled, and the remaining cells were lysed with a lysis buffer (lysate preparation). Immediately after 50 μL of assay solution (containing a substrate) was simultaneously added to each prepared medium (5 μL) or lysate (5 μL), the luminescence value was measured using a luminescence analyzer (LAS-4000; FujiFilm) (n=3) (FIG. 18).

[11] = tested on: COS-7 cells; assay: Luminescence characteristics of tag-containing ALucs (Example 1-22); type: cell-based; conditions: medium two days after gene transfer
Description: To compare the relative luminescence intensity of these luciferases, the following experiment was conducted. First, a gene encoding each luciferase was subcloned into pcDNA3.1 (+), which is a eukaryotic expression vector, and each vector was introduced into COS-7 cells. Two days after gene transfer, the relative luminescence intensity of luciferase secreted into each medium was compared using a luminescence reagent produced by Promega.

Molecule | luminescence intensity (initial) [1] | luminescence stability (general statement) [2] | luminescence intensity higher than that of conventional GLuc, Renilla luciferase and MpLuc4 [3] | luminescence value from the supernatant (medium) ([4]; during cell culturing) | luminescence intensity as two-hybrid reporter ([4]; lysate, equal conditions, vs MpLuc4 and GLuc reporters) | extracellular secretion [5] | prolonged enzymatic activity stability [6] | remaining enzymatic (luminescence) activity vs initial ([6]; after 25 days) [%] | change of luminescence intensity by heating [7] | time of maximum luminescence value after infusion of coelenterazine ([8]; after long-term conservation (25 days)) [min] | temporal change of luminescence after substrate injection ([8]; medium 25 days after expression) | luminescence intensity of luciferase secreted into the medium [9] | luminescence from cell medium [10] | luminescence value from lysate [10] | relative luminescence intensity [11]
B1 | advantageous initial luminescence intensity | remarkably stable luminescence signals | about 50 folds | slightly strong bioluminescence | highest luminescence intensity | relatively high extracellular secretion | significant decrease in enzymatic activity | 20 | a remarkable reduction in luminescence intensity that may be due to heating was not observed | – | – | – | – | – | –
B2 | – | remarkably stable luminescence signals | – | – | – | – | maintained stable enzymatic activity until Day 25 | – | – | 12 | several times higher | relatively high luminescence intensity | strong bioluminescence | extremely higher than those of conventional GLuc and MpLuc4 | –
B3 | – | remarkably stable luminescence signals | – | – | – | – | – | – | – | – | – | relatively high luminescence intensity | – | – | relatively high luminescence intensity
B4 | – | remarkably stable luminescence signals | – | – | – | – | – | – | – | – | – | relatively high luminescence intensity | – | – | relatively high luminescence intensity
